Measured values taken from US20240368300A1 (UCME BIOSCIENCE S R L, published 2024).
One block for each binder: values may come before it.

Tests used:
[1] = target: T1, recombinant soluble human CD93 extracellular domain fused to a 6xHis tag (human, UniProt Q9NPY3 24-580); assay: SPR (BIAcore), 4E1 immobilized on chip, recombinant CD93 injected, 1:1 fit
T1 construct: extracellular domain; also called recombinant CD93; soluble CD93 protein
T1 sequence: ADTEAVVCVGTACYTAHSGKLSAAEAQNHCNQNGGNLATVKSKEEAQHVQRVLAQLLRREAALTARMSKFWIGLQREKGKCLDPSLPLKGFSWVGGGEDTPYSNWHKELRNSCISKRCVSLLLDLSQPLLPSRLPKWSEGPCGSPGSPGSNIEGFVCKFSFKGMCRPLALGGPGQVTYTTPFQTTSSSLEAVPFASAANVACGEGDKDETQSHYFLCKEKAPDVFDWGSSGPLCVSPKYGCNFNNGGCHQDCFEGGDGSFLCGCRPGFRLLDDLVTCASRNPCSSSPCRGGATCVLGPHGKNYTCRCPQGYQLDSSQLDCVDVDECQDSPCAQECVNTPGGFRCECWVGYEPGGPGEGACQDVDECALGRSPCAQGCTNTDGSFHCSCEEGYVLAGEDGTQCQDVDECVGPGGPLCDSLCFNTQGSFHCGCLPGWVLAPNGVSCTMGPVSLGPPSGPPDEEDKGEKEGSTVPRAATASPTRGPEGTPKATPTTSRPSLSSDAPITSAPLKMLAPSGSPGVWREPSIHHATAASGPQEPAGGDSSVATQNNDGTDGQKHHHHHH
Method: The binding analysis was performed using a BIAcore 3000 equipped with a CM5 sensor chip. Briefly, 4E1 antibody was immobilized via amine groups on a CM5 sensor chip following standard procedures (flow rate 5 μl/min). For the immobilization, 4E1 diluted in 10 mM Na acetate pH 4.0 at the concentration of 10 μg/ml was injected for 360 sec over the dextran matrix on flow cell, which had been previously activated with a mixture of EDC-NHS for 420 sec. After injection of the antibody, a pulse of Ethanolamine 1M was performed to neutralize activated groups. A reference flow cell to be used as blank, was simultaneously subjected to identical procedures, but the injection of Antibody, which was substituted with injection of dilution buffer alone (HBS-EP+). Recombinant purified CD93 protein was diluted in HBS-EP+ at different concentration (1 μg/ml, 2.5 μg/ml, […] and 20 μg/ml) and injected for 180 s at a flow rate of 60 μl/min on flow cell 4 and on reference flow cell 3. […] Sensorgrams illustrated in the figure are obtained by subtraction from sensorgrams on Fc4 of those obtained on Fc3. Kinetic rates were calculated applying a 1:1 binding as fitting model using the Bia T200 evaluation software 2.0.1

human full-length CD93 = target: T2, human full-length CD93 (human, UniProt Q9NPY3 22-652); assay: immunofluorescence on fixed, permeabilized late spreading HUVECs
T2 construct: whole, on cells; Used in two settings; also called human CD93 protein
T2 sequence (looked up): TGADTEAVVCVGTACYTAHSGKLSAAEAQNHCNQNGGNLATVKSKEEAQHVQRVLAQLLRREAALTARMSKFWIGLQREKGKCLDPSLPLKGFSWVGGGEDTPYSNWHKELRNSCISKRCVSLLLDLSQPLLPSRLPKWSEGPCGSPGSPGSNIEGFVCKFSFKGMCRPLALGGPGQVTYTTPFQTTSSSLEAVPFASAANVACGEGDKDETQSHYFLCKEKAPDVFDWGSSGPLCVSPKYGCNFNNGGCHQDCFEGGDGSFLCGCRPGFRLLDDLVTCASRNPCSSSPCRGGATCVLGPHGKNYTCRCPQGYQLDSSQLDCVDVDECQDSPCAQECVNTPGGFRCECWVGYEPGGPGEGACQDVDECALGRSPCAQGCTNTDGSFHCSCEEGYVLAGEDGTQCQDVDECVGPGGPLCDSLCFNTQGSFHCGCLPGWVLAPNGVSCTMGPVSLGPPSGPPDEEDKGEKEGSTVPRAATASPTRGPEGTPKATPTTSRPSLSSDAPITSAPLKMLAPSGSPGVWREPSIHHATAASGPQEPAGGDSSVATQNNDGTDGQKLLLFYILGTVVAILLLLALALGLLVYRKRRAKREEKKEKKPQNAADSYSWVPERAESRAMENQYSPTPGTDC
Method: Zip Alexa Fluor Rapid Antibody Labeling kit (Thermo Fisher Scientific) was used to efficiently and quickly label the mAb 4E1 with Alexa Fluor 488 following the manufacturer's instructions. Briefly, 10 μl of 1 M sodium bicarbonate solution were added to 100 μl of 4E1 solution (1 mg/ml). Next, the antibody solution was incubated for 15 min at room temperature with the fluorochrome solution (Component B) and used in immunofluorescence experiments.
Cells were seeded onto gelatin-coated glass coverslips and fixed in 3% paraformaldehyde for 15 min at room temperature during the late spreading phase. Samples were permeabilized with 0.1% Triton X-100 in PBS, and blocked with 0.3% w/v BSA in PBS, each for 15 min at room temperature. Next, cells were washed with PBS and incubated 1 h at room temperature with Alexa Fluor 488-labeled 4E1 and rabbit anti-MMRN2 antibodies. Then, samples were washed three times with PBS/0.1% Tween-20 and incubated with secondary Alexa Fluor 568-labeled anti-rabbit antibodies (Thermo Fisher Scientific), diluted at 25 μg/mL in PBS/0.1% Tween-20. After washing, coverslips were mounted with Mowiol mounting medium. Fluorescent images were captured using a Leica TCS SP2 AOBS confocal laser-scanning microscope and overlaid images were produced. A Leica HCX PL APO Ibd.BL 63×/1.40 oil objective was used. […]

[2] = target: T1, recombinant soluble human CD93 …; assay: SPR (BIAcore), rec4E1 immobilized on chip, recombinant CD93 injected, 1:1 fit
Method: The binding analysis was performed using a BIAcore 3000 equipped with a CM5 sensor chip. Briefly, rec4E1 or 4E1 antibodies were immobilized via amine groups on a CM5 sensor chip following standard procedures. For the immobilization, the antibody diluted in 10 mM Na acetate pH 4.0 at the concentration of 10 μg/ml was injected for 360 sec over the dextran matrix on flow cell, which had been previously activated with a mixture of EDC-NHS for 420 sec. After injection of the antibody, a pulse of Ethanolamine 1 M was used to neutralize activated groups. A reference flow cell to be used as blank was simultaneously subjected to identical procedures, but the antibody was substituted with dilution buffer (HBS-EP+). Recombinant purified CD93 protein was diluted in HBS-EP+ at different concentration (10, 25, 50, 100, 250, and 500 ng/mL) and injected for 180 s at a flow rate of 60 μl/min on all flow cells. […] Kinetic rates were calculated applying a 1:1 binding as fitting model using the Bia T200 evaluation software 2.0.1.

Kd [1]: 450 pM
B1: anti-CD93 monoclonal antibody 4E1 (from hybridoma) (antibody, IgG1, V domains shown)
VH: QEQLQQPGTELVKPGASVRLSCKTSGYTFASYTLHWVKQTPGQGLDWIGAIYPGNGDTSYNQKFKDKATLTADKSSSTAYMQLSNLTSEDSAVYYCARLDWYFDLWGAGTTVTVS
VL: DIVLTQSPTSLAVSLGQRATISCKASQSVDYDGDSYMNWYQQKPGQPPRLLIYAASNLESGIPARFSGSGSGTDFTLNIHPVEEEDAATYYCQQNNEDPRTFGGGTKLEIK
notes: Mouse hybridoma antibody, full length, isotype IgG1 with k light chain; also called mAb 4E1; anti-CD93 4E1 mAb

binding result (human full-length CD93): binds
B2: Alexa Fluor 488-labeled 4E1 (antibody, V domains shown)
VH: QEQLQQPGTELVKPGASVRLSCKTSGYTFASYTLHWVKQTPGQGLDWIGAIYPGNGDTSYNQKFKDKATLTADKSSSTAYMQLSNLTSEDSAVYYCARLDWYFDLWGAGTTVTVS
VL: DIVLTQSPTSLAVSLGQRATISCKASQSVDYDGDSYMNWYQQKPGQPPRLLIYAASNLESGIPARFSGSGSGTDFTLNIHPVEEEDAATYYCQQNNEDPRTFGGGTKLEIK
modifications: Alexa Fluor 488 dye conjugated to the antibody (site and chain not stated)
notes: mAb 4E1 (mouse IgG1 k) labelled with the Zip Alexa Fluor Rapid Antibody Labeling kit; also called conjugated 4E1

Kd [2]: 5.09 pM
B3: recombinant anti-CD93 monoclonal antibody rec4E1 (antibody, V domains shown)
VH: QEQLQQPGTELVKPGASVRLSCKTSGYTFASYTLHWVKQTPGQGLDWIGAIYPGNGDTSYNQKFKDKATLTADKSSSTAYMQLSNLTSEDSAVYYCARLDWYFDLWGAGTTVTVS
VL: DIVLTQSPTSLAVSLGQRATISCKASQSVDYDGDSYMNWYQQKPGQPPRLLIYAASNLESGIPARFSGSGSGTDFTLNIHPVEEEDAATYYCQQNNEDPRTFGGGTKLEIK
notes: Whole recombinant IgG1 expressed in CHO cells from the pTRIOZ vector; The light chain constant region is not described; also called recombinant 4E1
